# Laboratory results published in patent US20260055182A1 (CIS BIOPHARMA, published 2026).
# Target: T1, L1-CAM recombinant protein (His Tag), human (human, UniProt P32004 20-1120)
# T1 construct: Bought protein; also called CD171; human L1-CAM; not shown: His tag
# Assay: ELISA, human L1-CAM coated at 2 µg/ml
# T1 sequence (P32004 20-1120 limits assumed): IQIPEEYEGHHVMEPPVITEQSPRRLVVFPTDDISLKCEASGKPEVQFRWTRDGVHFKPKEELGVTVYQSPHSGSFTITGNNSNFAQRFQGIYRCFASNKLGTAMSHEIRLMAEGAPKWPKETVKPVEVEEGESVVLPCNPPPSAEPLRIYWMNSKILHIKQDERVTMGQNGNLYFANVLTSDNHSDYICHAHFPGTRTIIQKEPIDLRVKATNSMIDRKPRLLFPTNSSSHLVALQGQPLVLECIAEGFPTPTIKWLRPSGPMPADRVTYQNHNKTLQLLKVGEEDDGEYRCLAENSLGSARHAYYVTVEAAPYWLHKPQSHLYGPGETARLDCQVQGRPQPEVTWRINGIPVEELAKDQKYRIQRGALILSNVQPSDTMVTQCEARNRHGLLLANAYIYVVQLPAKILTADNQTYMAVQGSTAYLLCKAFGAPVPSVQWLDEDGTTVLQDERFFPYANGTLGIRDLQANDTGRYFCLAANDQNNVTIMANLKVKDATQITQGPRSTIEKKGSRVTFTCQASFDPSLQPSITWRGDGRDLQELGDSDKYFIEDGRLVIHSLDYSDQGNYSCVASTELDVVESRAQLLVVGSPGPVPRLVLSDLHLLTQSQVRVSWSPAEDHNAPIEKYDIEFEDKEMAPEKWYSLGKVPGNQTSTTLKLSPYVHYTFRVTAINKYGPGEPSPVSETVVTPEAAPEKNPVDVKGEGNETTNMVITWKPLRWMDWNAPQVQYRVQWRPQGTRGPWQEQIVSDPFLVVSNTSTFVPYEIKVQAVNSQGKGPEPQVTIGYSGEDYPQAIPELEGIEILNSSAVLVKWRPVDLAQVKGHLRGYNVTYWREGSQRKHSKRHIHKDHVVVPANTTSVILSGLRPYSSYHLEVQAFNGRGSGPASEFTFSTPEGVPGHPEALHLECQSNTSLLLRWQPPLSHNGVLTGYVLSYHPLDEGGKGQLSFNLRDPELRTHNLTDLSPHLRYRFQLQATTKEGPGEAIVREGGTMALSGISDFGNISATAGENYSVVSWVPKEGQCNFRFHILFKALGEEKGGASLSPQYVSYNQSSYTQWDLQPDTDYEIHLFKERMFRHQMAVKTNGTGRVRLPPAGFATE
row,Binder,EC50 [µg/mL]
1,"CE7-variant1 (antibody, V domains shown, Human IgG1 kappa, L234A L235A P331S; also called CE7-12-VHA-1NL1-VLA; humanized variant 1) VH: QVQLVQSGAEVKKPGASVKVSCKASGYTFTGYWMHWVRQAPGQGLEWIGEINPSNGRTNYNERFKSRVTLTVDKSISTAYMELSRLRSDDTAVYFCARDYYGTSYNFDYWGQGTLVTVSS VL: DIQMTQSPSSLSASVGDRVTITCKANEDINNRLAWYQQKPGKAPKLLISGATNLVTGVPSRFSGSGSGKDYTLTISSLQPEDFATYYCQQYWSTPFTFGQGTKLEIKR",0.0288
2,"CE7-variant2 (antibody, V domains shown, Human IgG1 kappa, L234A L235A P331S; also called CE7-12-VHA-1NL1-VLB; humanized variant 2) VH: QVQLVQSGAEVKKPGASVKVSCKASGYTFTGYWMHWVRQAPGQGLEWIGEINPSNGRTNYNERFKSRVTLTVDKSISTAYMELSRLRSDDTAVYFCARDYYGTSYNFDYWGQGTLVTVSS VL: DIQMTQSPSSLSASVGDRVTITCRANEDINNRLAWYQQKPGKAPKLLISGATNLVTGVPSRFSGSGSGKDYTLTISSLQPEDFATYYCQQYWSTPFTFGQGTKLEIKR",0.0128
3,"CE7-variant4 (antibody, Human IgG1 kappa, L234A L235A P331S; also called CE7-12-VHA-133-VLB; humanized variant 4) heavy: QVQLVQSGAEVKKPGASVKVSCKASGYTFTGYWMHWVRQAPGQGLEWIGEINPSNGRTNYNERFKSRVTLTVDKSISTAYMELSRLRSDDTAVYFCARDYYGTSYNFDYWGQGTLVTVSSASTKGPSVFPLAPSSKSTSGGTAALGCLVKDYFPEPVTVSWNSGALTSGVHTFPAVLQSSGLYSLSSVVTVPSSSLGTQTYICNVNHKPSNTKVDKKVEPKSCDKTHTCPPCPAPEAAGGPSVFLFPPKPKDTLMISRTPEVTCVVVDVSHEDPEVKFNWYVDGVEVHNAKTKPREEQYNSTYRVVSVLTVLHQDWLNGKEYKCKVSNKALPASIEKTISKAKGQPREPQVYTLPPSREEMTKNQVSLTCLVKGFYPSDIAVEWESNGQPENNYKTTPPVLDSDGSFFLYSKLTVDKSRWQQGNVFSCSVMHEALHNHYTQKSLSLSPGK light: not shown",0.012
4,"CE7-variant8 (antibody, V domains shown, Human IgG1 kappa, L234A L235A P331S; also called CE7-12-VHB-1NL1-VLB; humanized variant 8) VH: QVQLVQSGAEVKKPGASVKVSCKASGYTFTGYWMHWVRQAPGQGLEWIGEINPSNGRTNYNERFQGRVTLTVDKSISTAYMELSRLRSDDTAVYYCARDYYGTSYNFDYWGQGTLVTVSS VL: DIQMTQSPSSLSASVGDRVTITCRANEDINNRLAWYQQKPGKAPKLLISGATNLVTGVPSRFSGSGSGKDYTLTISSLQPEDFATYYCQQYWSTPFTFGQGTKLEIKR",0.0129
5,"CE7-variant9 (antibody, V domains shown, Human IgG1 kappa, L234A L235A P331S; also called CE7-12-VHB-133-VLA; humanized variant 9) VH: QVQLVQSGAEVKKPGASVKVSCKASGYTFTGYWMHWVRQAPGQGLEWIGEINPSNGRTNYNERFQGRVTLTVDKSISTAYMELSRLRSDDTAVYYCARDYYGTSYNFDYWGQGTLVTVSS VL: DIQMTQSPSSLSASVGDRVTITCKANEDINNRLAWYQQKPGKAPKLLISGATNLVTGVPSRFSGSGSGKDYTLTISSLQPEDIATYYCQQYWSTPFTFGQGTKLEIKR",0.0197
6,"CE7-variant10 (antibody, V domains shown, Human IgG1 kappa, L234A L235A P331S; also called CE7-12-VHB-133-VLB; humanized variant 10) VH: QVQLVQSGAEVKKPGASVKVSCKASGYTFTGYWMHWVRQAPGQGLEWIGEINPSNGRTNYNERFQGRVTLTVDKSISTAYMELSRLRSDDTAVYYCARDYYGTSYNFDYWGQGTLVTVSS VL: DIQMTQSPSSLSASVGDRVTITCQANEDINNRLAWYQQKPGKAPKLLISGATNLVTGVPSRFSGSGSGKDYTFTISSLQPEDIATYYCQQYWSTPFTFGQGTKLEIKR",0.0136
7,"CE7-variant19 (antibody, V domains shown, CE7-1-2-VHB + CE7-1-NL1-VLC; human IgG1 kappa, L234A L235A P331S N297A (aglycosylated); also called humanized variant 19) VH: QVQLVQSGAEVKKPGASVKVSCKASGYTFTGYWMHWVRQAPGQGLEWIGEINPSNGRTNYNERFQGRVTLTVDKSISTAYMELSRLRSDDTAVYYCARDYYGTSYNFDYWGQGTLVTVSS VL: DIQMTQSPSSLSASVGDRVTITCRANEDINNRLAWYQQKPGKAPKLLISGASNLVSGVPSRFSGSGSGKDYTLTISSLQPEDFATYYCQQYWSTPFTFGQGTKLEIKR",0.0335
8,"CE7-variant20 (antibody, V domains shown, CE7-1-2-VHB + CE7-1-NL1-VLD; human IgG1 kappa, L234A L235A P331S N297A (aglycosylated); also called humanized variant 20) VH: QVQLVQSGAEVKKPGASVKVSCKASGYTFTGYWMHWVRQAPGQGLEWIGEINPSNGRTNYNERFQGRVTLTVDKSISTAYMELSRLRSDDTAVYYCARDYYGTSYNFDYWGQGTLVTVSS VL: DIQMTQSPSSLSASVGDRVTITCRASQGINNRLAWYQQKPGKAPKLLISGASNLVSGVPSRFSGSGSGKDYTLTISSLQPEDFATYYCQQYWSTPFTFGQGTKLEIKR",0.0317
